The text below walks through data of US20140329706A1 (CALIFORNIA INSTITUTE OF TECHNOLOGY, published 2014).

The target of assay [1] is T1, HaloTag-PDZ1+PDZ2 fusion protein (residues 61 to 249 of Mus musculus PSD-95) (Mus musculus, UniProt Q62108 61-249).
T1 construct: range 61-249; also called PSD-95 PDZ1-PDZ2; not shown: HaloTag
Kind of assay: affinity chromatography on HaloTag-PDZ1+PDZ2 resin, SIESDV peptide elution, SDS-PAGE.

Assay [2] addresses T2, MBP (control, expressed alone without a PDZ domain) (UniProt P0AEX9 27-392 = MBP). The experiment in a line: affinity chromatography on 1× nNOS PDZ-β-hairpin resin, SDS-PAGE.
Experimental: (§1) Resuspended cells were incubated on a shaking platform at low speed for 20 minutes at room temperature before the lysate was clarified by centrifugation at 16,000×g for 30 min at 4° C. […] The mixtures were then subjected to centrifugation at 1000×g for 2 min, and the supernatant was removed by pipetting. […] The cap was removed and the resin washed with 20 column volumes of Purification Buffer.
Assay [3] has as its target T3, GST (control, expressed alone without a PDZ domain) (UniProt P08515 1-218 = GST).
T3 construct: also called Glutathione S-Transferase
The assay is described as above.
Experimental: as §1

In assay [4] the target is T2, MBP (control, expressed alone without a …). The experiment in a line: affinity chromatography on … peptide resin, SDS-PAGE.
Experimental: as §1
For assay [5], the target named is T3, GST (control, expressed alone without a …). The assay is described as above.
Experimental: as §1
Assay [6] deals with T2, MBP (control, expressed alone without a …). Kind of assay: affinity chromatography on 2× nNOS PDZ-β-hairpin resin, SDS-PAGE.
Experimental: as §1
Assay [7] has as its target T3, GST (control, expressed alone without a …). The experiment in a line: affinity pull-down from clarified E. coli lysate on PSD-95 PDZ2 resin, wash, elution with free SIESDV peptide (400 ug/ml), SDS-PAGE with GelCode Blue.
Experimental: as §1

T3 sequence (P08515 whole entry, the tested form may be a part): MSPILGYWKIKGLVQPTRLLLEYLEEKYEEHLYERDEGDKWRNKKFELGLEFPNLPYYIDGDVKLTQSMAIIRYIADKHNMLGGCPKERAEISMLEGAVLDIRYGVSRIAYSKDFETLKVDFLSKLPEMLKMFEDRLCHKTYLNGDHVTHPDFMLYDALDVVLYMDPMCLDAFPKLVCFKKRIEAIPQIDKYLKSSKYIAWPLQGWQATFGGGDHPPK

B1: cypin (guanine deaminase, Homo sapiens: AA 1-454) (other, UniProt Q9Y2T3 1-454, looked up)
chain: MCAAQMPPLAHIFRGTFVHSTWTCPMEVLRDHLLGVSDSGKIVFLEEASQQEKLAKEWCFKPCEIRELSHHEFFMPGLVDTHIHASQYSFAGSSIDLPLLEWLTKYTFPAEHRFQNIDFAEEVYTRVVRRTLKNGTTTACYFATIHTDSSLLLADITDKFGQRAFVGKVCMDLNDTFPEYKETTEESIKETERFVSEMLQKNYSRVKPIVTPRFSLSCSETLMGELGNIAKTRDLHIQSHISENRDEVEAVKNLYPSYKNYTSVYDKNNLLTNKTVMAHGCYLSAEELNVFHERGASIAHCPNSNLSLSSGFLNVLEVLKHEVKIGLGTDVAGGYSYSMLDAIRRAVMVSNILLINKVNEKSLTLKEVFRLATLGGSQALGLDGEIGNFEVGKEFDAILINPKASDSPIDLFYGDFFGDISEAVIQKFLYLGDDRNIEEVYVGGKQVVPFSSSV
notes: range 1-454; also called untagged cypin
Turning to B1, the binding result in assay [1] is listed as “binds”.

B2: MBP-cypin (other, Homo sapiens, UniProt Q9Y2T3 1-454, looked up, not shown: large carriers)
chain: B1 chain
notes: range 1-454; also called cypin fused to an N-terminal MBP
For B2, the binding result in assay [1] was “binds”.

B3: nNOS PDZ domain (AA 11-129 of Mus musculus nNOS) (other, UniProt Q9Z0J4 11-129, looked up)
chain: IQPNVISVRLFKRKVGGLGFLVKERVSKPPVIISDLIRGGAAEQSGLIQAGDIILAVNDRPLVDLSYDSALEVLRGIASETHVVLILRGPEGFTTHLETTFTGDGTPKTIRVTQPLGTP
notes: range 11-129; also called 1× nNOS PDZ domain; 1× nNOS PDZ-β-hairpin domain
As to B3, the binding result in assay [2] and in assay [3] was “no binding” throughout.

As to GAGSSIESDV (also called GluN2B ligand-NHS-Agarose) [NR2B (GluN2B) peptide ligand GAGSSIESDV], the binding result in assay [4] and in assay [5] was “no binding” each time.

B4: 2× nNOS PDZ domain fusion protein that contains a BH after each nNOS PDZ domain (other)
chain: QPNVISVRLFKRKVGGLGFLVKERVSKPPVIISDLIRGGAAEQSGLIQAGDIILAVNDRPLVDLSYDSALEVLRGIASETHVVLILRGPEGFTTHLETTFTGDGTPKTIRVTQPLGTPTQPNVISVRLFKRKVGGLGFLVKERVSKPPVIISDLIRGGAAEQSGLIQAGDIILAVNDRPLVDLSYDSALEVLRGIASETHVVLILRGPEGFTTHLETTFTGDGTPKTIRVTQPLGTPT
notes: domain: nNOS PDZ domain with β-Hairpin; also called nNOS-BH-nNOS-BH; 2× nNOS PDZ-β-hairpin domains
As for B4, the binding result in assay [6] is “no binding”.

B5: PDZ2 domain of PSD-95 (other, UniProt Q62108 160-246, looked up)
chain: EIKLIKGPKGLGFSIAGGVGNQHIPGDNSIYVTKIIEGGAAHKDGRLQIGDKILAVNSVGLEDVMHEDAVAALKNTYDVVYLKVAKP
notes: domain: PDZ2; Species (Mus musculus) is stated only for the PDZ1+PDZ2 construct; also called PSD-95 PDZ2
For B5, in assay [7], the binding result was “no binding”.
